Experimental data published in patent US20220163515.

Tests used:
[1] = molecular target: Pumby8_KD_3 (synthetic (from Homo sapiens Pumilio unit 6)) (UniProt Q14671); test: FP; settings: 25 mM Tris-HCl pH 7.5, 0.5 mM EDTA, 50 mM KCl, 0.1 mg/mL BSA; active-fraction corrected
[2] = molecular target: Pumby8_KD_4 (synthetic (from Homo sapiens Pumilio unit 6)) (UniProt Q14671); test: FP; settings: 25 mM Tris-HCl pH 7.5, 0.5 mM EDTA, 50 mM KCl, 0.1 mg/mL BSA; active-fraction corrected
Sequence of Pumby8_KD_4 (synthetic (from Homo sapiens Pumilio unit 6)) (Q14671 1028-1063): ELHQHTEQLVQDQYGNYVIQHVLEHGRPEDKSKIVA

Sequence of Pumby8_KD_3 (synthetic (from Homo sapiens Pumilio unit 6)) (Q14671 1028-1063): as above

CCAGAAUUGUAGAUAUUCG [KD_3 cognate]
Kd [1]: 1.34 nM

CCAGAAUCAUGUCAGUUCG [KD_2/KD_4 cognate]
Kd [2]: 0.439 nM
